B1: IKZF1 (parent)
chain: YHSQDRYEFSSHITRGEHRFHMS

Variants of: B1
Experiment: protein stability index of a GFP-peptide fusion (GPS, HEK-293T) (PSI 1-6); higher = more stable
Conditions: c terminus: native
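Further: lentivirally expressed fusions sorted by FACS into six bins by GFP to DsRed ratio, PSI derived from sequencing read proportions per bin multiplied by bin number.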

Row | Variant | protein stability index
1 | YHSQDRYEFSSHITRCEHRFHMS [G16C] | 2.74
2 | YHSQDRYEFSSHITRTEHRFHMS [G16T] | 2.4
3 | YHSQDRYEFSSHITRPEHRFHMS [G16P] | 2.01
4 | YHSQDRYEFSSHITRAEHRFHMS [G16A] | 1.76
5 | YHSQDRYEFSSHITRQEHRFHMS [G16Q] | 1.58
6 | YHSQDRYEFSSHITREEHRFHMS [G16E] | 3.6
7 | YHSQDRYEFSSHITRLEHRFHMS [G16L] | 1.53
8 | YHSQDRYEFSSHITRIEHRFHMS [G16I] | 1.77
9 | YHSQDRYEFSSHITRYEHRFHMS [G16Y] | 4.64
10 | YHSQDIYEFSSHITRGEHRFHMS [R6I] | 2.25
11 | YHSQDGYEFSSHITRGEHRFHMS [R6G] | 2.22
12 | YHSQDLYEFSSHITRGEHRFHMS [R6L] | 2.98
13 | YHSQDYYEFSSHITRGEHRFHMS [R6Y] | 2.24
14 | YHSQDNYEFSSHITRGEHRFHMS [R6N] | 2.44
15 | YHSQDMYEFSSHITRGEHRFHMS [R6M] | 2.65
16 | YHSQDWYEFSSHITRGEHRFHMS [R6W] | 2.83
17 | YHSQDPYEFSSHITRGEHRFHMS [R6P] | 2.23
18 | YHSQDAYEFSSHITRGEHRFHMS [R6A] | 2.22
19 | YHSQDRYFFSSHITRGEHRFHMS [E8F] | 3.7
20 | YHSQDRYPFSSHITRGEHRFHMS [E8P] | 3.38
21 | YHSQDRYHFSSHITRGEHRFHMS [E8H] | 4.13
22 | YHSQDRYGFSSHITRGEHRFHMS [E8G] | 1.72
23 | YHSQDRYQFSSHITRGEHRFHMS [E8Q] | 2.17
24 | YHSQDRYKFSSHITRGEHRFHMS [E8K] | 3.34
25 | YHSQDRYSFSSHITRGEHRFHMS [E8S] | 3.3

Row | Variant | protein stability index
26 | YHSQDRYVFSSHITRGEHRFHMS [E8V] | 1.98
27 | YHSQDRYEFSSHQTRGEHRFHMS [I13Q] | 1.62
28 | YHSQDRYEFSSHETRGEHRFHMS [I13E] | 1.83
29 | YHSQDRYEFSSHFTRGEHRFHMS [I13F] | 1.81
30 | YHSQDRYEFSSHPTRGEHRFHMS [I13P] | 1.78
31 | YHSQDRYEFSSHRTRGEHRFHMS [I13R] | 1.49
32 | YHSQDRYEFSSHNTRGEHRFHMS [I13N] | 2.05
33 | YHSQDRYEFSSHWTRGEHRFHMS [I13W] | 1.71
34 | YHSQDRYEFSSHMTRGEHRFHMS [I13M] | 2.04
35 | YHSQDRYEFSSHHTRGEHRFHMS [I13H] | 2.36
36 | YHSQDRYEFSSHSTRGEHRFHMS [I13S] | 2.03
37 | YHSQDRYEFSSHYTRGEHRFHMS [I13Y] | 1.49
38 | YHSQDRYEFSSHITRGEHRKHMS [F20K] | 2.38
39 | YHSQDRYEFSSHITRGEHRDHMS [F20D] | 1.76
40 | YHSQDRYEFSSHITRGEHRRHMS [F20R] | 2.36
41 | YHSQDRYEFSSHITRGEHRVHMS [F20V] | 1.39
42 | YHSQDRYEFSSHITRGEHREHMS [F20E] | 1.42
43 | YHSQDRYEFSSHITRGEHRHHMS [F20H] | 1.93
44 | YHSQDRYEFSMHITRGEHRFHMS [S11M] | 1.48
45 | YHSQDRYEFSTHITRGEHRFHMS [S11T] | 2.02
46 | YHSQDRYEFSDHITRGEHRFHMS [S11D] | 2.01
47 | YHSQDRYEFSVHITRGEHRFHMS [S11V] | 1.6
48 | YHSQDRYEFSCHITRGEHRFHMS [S11C] | 1.68
49 | YHSQDRYEFSWHITRGEHRFHMS [S11W] | 2.27
50 | YHSQDRYEFSPHITRGEHRFHMS [S11P] | 3.03

Row | Variant | protein stability index
51 | YHSQDRYEFSAHITRGEHRFHMS [S11A] | 2.36
52 | YHSQDRYEFSSHITRGEHRFHTS [M22T] | 2.06
53 | YHSQDRYEFSSHITRGEHRFHES [M22E] | 1.82
54 | YHSQDRYEFSSHITRGEHRFHDS [M22D] | 1.94
55 | YHSQDRYEFSSHITRGEHRFHWS [M22W] | 1.65
56 | YHSQDRYEFSSHITRGEHRFHVS [M22V] | 2
57 | YHSQDRYEFSSHITRGEHRFHYS [M22Y] | 1.56
58 | YHSQDRYEFSSHITRGEHRFHGS [M22G] | 3.65
59 | YHSQDRYEFSSHITRGEHRFHFS [M22F] | 1.53
60 | YHSQDRYEFSSHITRGEHRFHHS [M22H] | 1.66
61 | YHSQDRYEFSSHITRGEHRFHNS [M22N] | 2.06
62 | YHSQDRYEFSSHITRGEHRFHIS [M22I] | 2.48
63 | YHSQDRYEFSSHITRGEHRFHCS [M22C] | 3.14
64 | YHSQDRYEFSSHITRGEHRFHAS [M22A] | 2.58
65 | YHSQDRYEFSSHITRGEHRFHPS [M22P] | 2.01
66 | YHSQDRYEFSSHITRGEWRFHMS [H18W] | 2.34
67 | YHSQDRYEFSSHITRGEDRFHMS [H18D] | 1.12
68 | YHSQDRYEFSSHITRGEVRFHMS [H18V] | 1.68
69 | YHSQDRYEFSSHITRGEERFHMS [H18E] | 1.97
70 | YHSQDRYEFSSHITRGELRFHMS [H18L] | 1.99
71 | YHSQDRYEFSSHITRGEQRFHMS [H18Q] | 1.72
72 | YHSQDRYEFSSHITRGEMRFHMS [H18M] | 2.75
73 | YHSQDRYEFSSHITRGEYRFHMS [H18Y] | 1.83
74 | YHSQDRYEFSSHITRGEGRFHMS [H18G] | 1.6
75 | YHSQDRYEFSSHITRGNHRFHMS [E17N] | 2.92

Row | Variant | protein stability index
76 | YHSQDRYEFSSHITRGGHRFHMS [E17G] | 1.56
77 | YHSQDRYEFSSHITRGCHRFHMS [E17C] | 3.05
78 | YHSQDRYEFSSHITRGWHRFHMS [E17W] | 2.07
79 | YHSQDRYEFSSHITRGKHRFHMS [E17K] | 2.41
80 | YHSQDRYEFSSHITRGQHRFHMS [E17Q] | 2.48
81 | YHSQDRYEFSSHITRGHHRFHMS [E17H] | 1.99
82 | YHSQDRYEFSSHITRGVHRFHMS [E17V] | 1.68
83 | YHSQDRYEFSSHITRGSHRFHMS [E17S] | 1.64
84 | YHSQDRYEFSSHITRGEHQFHMS [R19Q] | 2.28
85 | YHSQDRYEFSSHITRGEHKFHMS [R19K] | 1.95
86 | YHSQDRYEFSSHITRGEHWFHMS [R19W] | 2.84
87 | YHSQDRYEFSSHITRGEHIFHMS [R19I] | 2.17
88 | YHSQDRYEFSSHITRGEHMFHMS [R19M] | 1.92
89 | YHSQDRYEFSSHITRGEHGFHMS [R19G] | 1.89
90 | HHSQDRYEFSSHITRGEHRFHMS [Y1H] | 3.76
91 | QHSQDRYEFSSHITRGEHRFHMS [Y1Q] | 3.99
92 | EHSQDRYEFSSHITRGEHRFHMS [Y1E] | 4
93 | VHSQDRYEFSSHITRGEHRFHMS [Y1V] | 3.57
94 | NHSQDRYEFSSHITRGEHRFHMS [Y1N] | 4.05
95 | RHSQDRYEFSSHITRGEHRFHMS [Y1R] | 4.05
96 | YHSQDRYEFSSHITAGEHRFHMS [R15A] | 2.46
97 | YHSQDRYEFSSHITDGEHRFHMS [R15D] | 2

— the supplement of paper PMC10567573
